Experimental findings from publication doi:10.1101/2023.10.23.563088 are described below.

Test [1] deals with gramicidin D (the natural mixture of linear gramicidins).
The target is the same in test [2]. The source holds these as a separate data set.

Consider “gramicidin D (the natural mixture of linear gramicidins) (peptide)”, for which the ANTS fluorescence quench rate by Tl+ entering DC22:1PC LUVs through gramicidin channels (GFA), rate relative to control, with remdesivir 1 to 3 μM (no observable effect at 1 μM) in test [1] was determined as 2 fold. The ANTS fluorescence quench rate by Tl+ entering DC22:1PC LUVs through gramicidin channels (GFA), rate relative to DMSO control, with ivermectin 1 to 10 μM (12-fold at 1 μM) in test [2] was 17 fold.
